Assay in all cases: IEDB peptide-MHC binding, purified MHC/competitive/radioactivity; filed as Kd, often an IC50 or EC50 that approximates it; ≥ and ≤ were set here for values at or beyond the usual limits of such assays
Assay [1] has as its target HLA-A*31:01.
For assay [2], the target named is HLA-A*03:01.
Assay [3] concerns the target HLA-A*33:01.
Assay [4] concerns the target HLA-A*68:01.
For assay [5], the target named is HLA-A*11:01.
The mark [6] stands for this setting: source organism: Vaccinia virus WR.
Setting [7] is: source organism: Dengue virus 2 Jamaica/1409/1983.
The mark [8] stands for this setting: source organism: SARS coronavirus Tor2.
Setting [9] is: source organism: Dengue virus 4 Philippines/H241/1956.
Where [10] appears, read: source organism: Dengue virus 3 Martinique/1243/1999.

pKd: −log10 of the molar value. A value given as a limit tells only on which side of the number the result lay.

On to AALDGTFQRK, for which the negative-log Kd (pKd) in assay [1] (setting [6]) is 5.37; in assay [2] (setting [6]), 7.31; in assay [3] (setting [6]) it was ≤ 4.15; in assay [4] (setting [6]) it was 5.08; in assay [5] (setting [6]) it was 8.09.

Regarding AIFTYTGGY, the negative logarithm of the Kd (pKd) in assay [1] (setting [6]) was 5.15; in assay [2] (setting [6]), 6.54; in assay [3] (setting [6]), ≤ 4.11; in assay [4] (setting [6]) it was 5.08; in assay [5] (setting [6]), 6.55.

On to AISSRVDRY, for which the pKd was 4.73 in assay [1] (setting [6]); 5.30 in assay [2] (setting [6]); ≤ 4.11 in assay [3] (setting [6]); 5.32 in assay [4] (setting [6]); 6.79 in assay [5] (setting [6]).

For the sequence AMAFHLTTR, the values for the pKd in assay [1] (setting [7]) and in assay [2] (setting [7]) were 8.80 and 7.25, respectively.

Turning to ATAHSELAK, the negative-log Kd (pKd) in assay [1] (setting [8]) is 4.73; in assay [2] (setting [8]), 7.94; in assay [3] (setting [8]), ≤ 4.11; in assay [4] (setting [8]), 7.72; in assay [5] (setting [8]) it was 8.27.

Regarding DLIAMENLK, the negative-log Kd (pKd) was 4.71 in assay [1] (setting [6]); ≤ 4.47 in assay [2] (setting [6]); 6.23 in assay [3] (setting [6]); 7.79 in assay [4] (setting [6]); 5.87 in assay [5] (setting [6]).

As for DLLNSMMNR, the pKd in assay [1] (setting [6]) is 7.37; in assay [2] (setting [6]), 5.66; in assay [3] (setting [6]) it was 8.39; in assay [4] (setting [6]), 7.44; in assay [5] (setting [6]), 4.83.

For DSMDVLAEKK, the pKd is 6.00 in assay [1] (setting [6]); 6.46 in assay [2] (setting [6]); 5.45 in assay [3] (setting [6]); 8.77 in assay [4] (setting [6]); 6.12 in assay [5] (setting [6]).

For the sequence EGVYRIMQR, in assay [4] (setting [9]), the pKd is 6.67.

Regarding ETAKVIKLVK, the pKd was 5.03 in assay [1] (setting [6]); 5.79 in assay [2] (setting [6]); ≤ 4.15 in assay [3] (setting [6]); 7.67 in assay [4] (setting [6]); 6.72 in assay [5] (setting [6]).

Consider ETNMITLLVK, for which, in assay [5] (setting [9]), the negative logarithm of the Kd (pKd) was 5.97.

Turning to FLIGANYLGK, the pKd is 5.43 in assay [1] (setting [8]); 6.67 in assay [2] (setting [8]); ≤ 4.47 in assay [3] (setting [8]); 7.29 in assay [4] (setting [8]); 6.27 in assay [5] (setting [8]).

Regarding FLLFLEITY, the pKd in assay [1] (setting [6]) is 6.80; in assay [2] (setting [6]), 4.98; in assay [3] (setting [6]) it was 5.14; in assay [4] (setting [6]), 5.72; in assay [5] (setting [6]) it was 4.80.

For the sequence FMDEIDHESY, the pKd was ≤ 4.66 in assay [1] (setting [6]); 4.80 in assay [2] (setting [6]); ≤ 4.36 in assay [3] (setting [6]); ≤ 4.23 in assay [4] (setting [6]); ≤ 4.44 in assay [5] (setting [6]).

Take FTLNHVLALK: the negative logarithm of the Kd (pKd) in assay [1] (setting [6]) is 6.87; in assay [2] (setting [6]), 7.97; in assay [3] (setting [6]) it was 5.77; in assay [4] (setting [6]), 8.34; in assay [5] (setting [6]), 8.10.

On to GALHLYFDK, for which the pKd in assay [1] (setting [8]) was 6.84; in assay [2] (setting [8]), 6.31; in assay [3] (setting [8]) it was 4.81; in assay [4] (setting [8]) it was 5.30; in assay [5] (setting [8]), 9.03.

As to GLSLQDYCY, the negative-log Kd (pKd) in assay [1] (setting [6]) is ≤ 4.42; in assay [2] (setting [6]), 5.51; in assay [3] (setting [6]), 5.06; in assay [4] (setting [6]), ≤ 4.53; in assay [5] (setting [6]), 6.44.

In the case of GLTSRATWAK, the pKd in assay [2] (setting [7]) was 7.28.

GTDDEVIER: the pKd in assay [1] (setting [6]) was 5.65; in assay [2] (setting [6]), ≤ 4.20; in assay [3] (setting [6]), 5.93; in assay [4] (setting [6]), 6.20; in assay [5] (setting [6]), 6.43.

For the sequence GTLGLECSPR, the negative-log Kd (pKd) in assay [3] (setting [10]) is 7.63; in assay [4] (setting [10]), 6.97.

In the case of GVRFFFYTSK, the pKd is 6.31 in assay [1] (setting [8]); 7.05 in assay [2] (setting [8]); 4.96 in assay [3] (setting [8]); 6.92 in assay [4] (setting [8]); 7.35 in assay [5] (setting [8]).

As to HIKVDHPDK, the pKd was 6.80 in assay [1] (setting [6]); 5.29 in assay [2] (setting [6]); 6.53 in assay [3] (setting [6]); 5.71 in assay [4] (setting [6]); 5.25 in assay [5] (setting [6]).

Turning to IAQYKCVTIK, the pKd in assay [1] (setting [6]) was 5.23; in assay [2] (setting [6]) it was 7.54; in assay [3] (setting [6]), ≤ 4.62; in assay [4] (setting [6]), 5.23; in assay [5] (setting [6]) it was 6.11.

For ILSDENYLLK, the pKd in assay [1] (setting [6]) is 4.77; in assay [2] (setting [6]), 7.24; in assay [3] (setting [6]), 4.84; in assay [4] (setting [6]) it was 5.60; in assay [5] (setting [6]), 7.54.

For the sequence ISNITTATR, the pKd in assay [1] (setting [9]) is 7.14.

With ISYCRAFIY, the pKd in assay [1] (setting [6]) was 6.63; in assay [2] (setting [6]) it was 8.84; in assay [3] (setting [6]), 5.45; in assay [4] (setting [6]), 8.87; in assay [5] (setting [6]), 9.45.

Turning to IVNEHDIKY, the negative logarithm of the Kd (pKd) was ≤ 4.40 in assay [1] (setting [6]); 8.95 in assay [2] (setting [6]); ≤ 4.25 in assay [3] (setting [6]); 5.35 in assay [4] (setting [6]); 7.07 in assay [5] (setting [6]).

The term pKd denotes −log10 of the Kd, conventionally taken in molar units.

The record behind these values is the Immune Epitope Database (IEDB).
